# Results reported in PMC8905165, “Reconstitution of an active human CENP-E motor” (Open Biology, 2022).
# B1: CENP-E754-2mNeon (domain or fragment, human, UniProt Q02224 1-754, looked up)
# chain: MAEEGAVAVCVRVRPLNSREESLGETAQVYWKTDNNVIYQVDGSKSFNFDRVFHGNETTKNVYEEIAAPIIDSAIQGYNGTIFAYGQTASGKTYTMMGSEDHLGVIPRAIHDIFQKIKKFPDREFLLRVSYMEIYNETITDLLCGTQKMKPLIIREDVNRNVYVADLTEEVVYTSEMALKWITKGEKSRHYGETKMNQRSSRSHTIFRMILESREKGEPSNCEGSVKVSHLNLVDLAGSERAAQTGAAGVRLKEGCNINRSLFILGQVIKKLSDGQVGGFINYRDSKLTRILQNSLGGNAKTRIICTITPVSFDETLTALQFASTAKYMKNTPYVNEVSTDEALLKRYRKEIMDLKKQLEEVSLETRAQAMEKDQLAQLLEEKDLLQKVQNEKIENLTRMLVTSSSLTLQQELKAKRKRRVTWCLGKINKMKNSNYADQFNIPTNITTKTHKLSINLLREIDESVCSESDVFSNTLDTLSEIEWNPATKLLNQENIESELNSLRADYDNLVLDYEQLRTEKEEMELKLKEKNDLDEFEALERKTKKDQEMQLIHEISNLKNLVKHAEVYNQDLENELSSKVELLREKEDQIKKLQEYIDSQKLENIKMDLSYSLESIEDPKQMKQTLFDAETVALDAKRESAFLRSENLELKEKMKELATTYKQMENDIQLYQSQLEAKKKMQVDLEKELQSAFNEITKLTSLIDGKVPKDLLCNLELEGKITDLQKELNKEVEENEALREEVILLSELKSLPS
# notes: human CENP-E, N-terminal truncation with the motor domain and five predicted coiled-coils of the native stalk, ending at residue 754; The methods call it a dimeric motor; the self-association row is of one chain with another; also called truncated CENP-E; source: Sf9 cells (baculovirus), purified (HisTrap, Superose 6); not shown: mNeonGreen (2 x tandem), C-terminal, kept
# B2: CENP-E483-2mNeon (domain or fragment, human, UniProt Q02224 1-483, looked up)
# chain: MAEEGAVAVCVRVRPLNSREESLGETAQVYWKTDNNVIYQVDGSKSFNFDRVFHGNETTKNVYEEIAAPIIDSAIQGYNGTIFAYGQTASGKTYTMMGSEDHLGVIPRAIHDIFQKIKKFPDREFLLRVSYMEIYNETITDLLCGTQKMKPLIIREDVNRNVYVADLTEEVVYTSEMALKWITKGEKSRHYGETKMNQRSSRSHTIFRMILESREKGEPSNCEGSVKVSHLNLVDLAGSERAAQTGAAGVRLKEGCNINRSLFILGQVIKKLSDGQVGGFINYRDSKLTRILQNSLGGNAKTRIICTITPVSFDETLTALQFASTAKYMKNTPYVNEVSTDEALLKRYRKEIMDLKKQLEEVSLETRAQAMEKDQLAQLLEEKDLLQKVQNEKIENLTRMLVTSSSLTLQQELKAKRKRRVTWCLGKINKMKNSNYADQFNIPTNITTKTHKLSINLLREIDESVCSESDVFSNTLDTLSEIE
# notes: human CENP-E, N-terminal truncation with the motor domain and the first predicted coiled-coil (334-401), ending at residue 483; the start at residue 1 is printed only for the ColabFold input (1-483); Codon-optimised synthetic gene in pFastBac1; A mixture of monomers and dimers in solution; also called truncated human CENP-E; minimal human CENP-E motor; source: Sf9 cells (baculovirus), purified …
# Legend:
# [1] = molecular target: the molecule itself; assay: single-molecule photobleaching step counting and initial intensity analysis (TIRF); 0.5 nM fluorescently tagged motor adsorbed non-specifically to silanized coverslips, BRB80 with oxygen scavenger mix, 30°C; monomer to dimer
# [2] = molecular target: the molecule itself; assay: native gel or EMSA; native PAGE of purified CENP-E483-2mNeon; monomer to dimer
Protein,binding result [1],stoichiometry N [2]
B1,binds,
B2,,2
